Assay results reported in the nanobody polyreactivity screen of Harvey et al. (2022).

Test: yeast display, Sf9 membrane polyspecificity reagent, FACS + sequencing; frameworks hold sequencing errors
Procedure, shortened: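 A synthetic nanobody library was expressed on Saccharomyces cerevisiae BJ5465 by galactose induction for 36–48 hours. The library was stained for 1 hour at 4 °C with 10% biotinylated, detergent-solubilized Sf9 membrane reagent and enriched with streptavidin microbeads before FACS. Low and high (top ~1%) gates were set on anti-HA fluorescence for expression and streptavidin fluorescence for reagent binding, and each polyreactivity label reflects the gate of origin.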

Sequence	polyreactivity (PSR sort gate)
QVQLVDSGGGLVQAGGSLRLSCAASGFIFLNNAMGWYRQAPGKERELVAAITWSGGSTYYADSVKGRFTISRDNAKNTVYLQMNSLKPEDTAVYYCAADGWLYYGVGYWGQGTQVTVSS	low polyreactivity
QVQLVASGGGLVQSGGSLRLSCAASGTTFGYYAMGWYIQAPGKERELVAAITKSGGSTFYAESVKGRFTISRDNAKNTVYLQMNSLKPEDTAVYYCAARYKGQYYRQGRHDYWGQGTQVTVSS	high polyreactivity
QVQLVESGGGLVQAGGSLRLSCAASGSTFDQYAMGWYRQEPGKERELGAAISGSGGRTYYADSVKGRFTISRDNAKNTVYLQLNSLKPEDTAVYYCNTRAWRWGTDNSWGQGTQVTVSS	high polyreactivity
QVQLVESGGGLDQAGGSLRLSCAASGFIYSSYGMGWYRQAPGKERELDAAISRSGGSTYYADSVKGRFTISRDNAKNTVYLEMNSLKPEDTAVYYCATAYSWRNADWFAYSYDYWGQGTQVTVSS	low polyreactivity
QVQLVESGGGLVQAGGSLRLSCAASGRTLPEYGMGWSRQAPGKEREFVAAISTRGGSTYYANSVKGRFTISRDNAKNTVYLQMNSLKPEDTAVYYCAKVYDRSCGDYWGQGTQVTVSS	low polyreactivity
QVQLVETGGGLVQAGGSLRLSCAASGITFYYYAMGWYRQAPGKERELVAAINSGGITNYADSVKGRFTLSRDIAKKTVYLQMNSLKPEDTAVYYCAASSGFRYRYGYWGQGTQVTVSS	high polyreactivity
QVQLVESCGGLVQAGGSLRLSCAASVSTFLFYAMGWDRQAPRKERELVAAITSGDSTNYADSVKGRFTISRDNAKNTVYLQMNSLKPEDTAVYYCAASRFGAYYWGQGTQVTVSS	high polyreactivity
QVQLVESGGGLVQAVGSLRLSFAASGFTFWYYPMGWYRQAPGKERELLAAITSSGGSTYYADSEKGRFTISRDYAKITVYLQMNSLKPEDTAVYYCAAGAPYRYYYCGQGTQVTVSS	high polyreactivity
QVQLVESGGGLVQAGGSLRLSCAASGRTSRRNAMGWYRQAPGKERELVAATSGSGTSTYYADSVKGRFTISRDNAKNTVYLQMNSLKPEDTAVYYCNTDTSRRAVQYDYWGQGTQVTVSS	high polyreactivity
QVQLVESGGGLVQAGGSLRLSCAASGRIFTNYAMGWYRQAPGKERELVAAINWDGGSTYYADSVKGRFTISRDNAKNTVYLQMNSLKPEDTAVYYCAAQGGLSEFDYWGQGTQVTVSS	low polyreactivity
QVQLVESGGGLVQAGGSLRVSCAASGSTFWSNVMGWYRQAPGKERELDSAISYGGVTTSYADSVKGRFTISRDNAKNTVYLQMNSLKPEDTAVYYCATDYVGYYFYESDYWGQGTQVTVSS	low polyreactivity
QVQLVESGGGLVQAGGSLRLSCAASGHIFFYYTMGWYRQAPGKERELVAGITIGGSTNYADSVKGRFTISRDNAKNTVYLQMNSLKPEDTAVYYCNVVKYVYIYTYWEYYYWGQGTQVTVSS	low polyreactivity
QVQLVESGGGLVQAGGSLRLSCAASGFIFLRYGMGWYRKAPGKERELVASIDSTGGSTYADSVKGRFTISRDNAKNTVYLQMNSLKPEDTAVYYCAAAYYIVSERDYWGQGTQVTVSS	low polyreactivity
QVQLVESGGRLVQSGGSLRLSCAASGRTIVENAMGLYRQAPGKEREFVAAISYKGGSTYYADSVKGRFTISRDNAKNTVYFQMNSLNPEDTAVYYCAADPNYGYDYWGQGTQVTVST	low polyreactivity
QVQLVESGGGLVQAGGSLRLSCAASGFIFSYYAMGWYRQAPGKERELVAAINWSGGSTYYADSVKGRFTISRDNAKNTVYLQMNSLKPEDTAVYYCAAYSSWHPYDYWGQGTQVTVSS	high polyreactivity
QVQLVESGGGLVQAGGSLRLSSAASGYTFTINTMGWYRQAPGKERELVAAITWRGGSTYYADSVKGRFSISRDNAKNTVYLQMNSLKPEDTAVYYCNKDYYITTTTFDYWGQGTQVTVSS	low polyreactivity
QVQLVESGGGLVPAGGSLRLSCAASGRTFFKNAMGWYRQAPGKERELVARISWNGGDSTYYADSVKGRFTISRDNAKNTVYLQMNSLKPEDTAVYSCAADTSYRPGGSRHGYGYWGQGTQVTVSS	low polyreactivity
QVQLVESGGCLVQAGGSLRLSCAASGRIFQAYAMGWYRQAPGKERELVAAINRSGNTNYADSVKGRFTISRDNAKNTVYLQMNSLKPEDTAVYYCAADAVSFSYFGYQRMDYWGQGTQVTVSS	low polyreactivity
QVQLVESGGGLVQAGGSLRLSCAASGRIFSRYAMGRYRQAPGKERELVAAITQSGTSTYYADSVKGRFTISRDNAKNTVYLQMNSLKPEDTAVYYCNAYRQYRYDYWGQGTQVTVSS	low polyreactivity
QVQLVESGGGLVQAGGSLRLSCAASGLTFLNNAMGWYRQAPVKERELVAAISVGGSTNYADSVKGRFTISRDNAKNTVYLQMNSLKPEDTAVYYCAAVYTSASYGSWGQGTQVTVSS	low polyreactivity
QVQLVESGGGLVQAGGSLRLSCAASGSTFAAYVMGWYRQAPGKEWELVAAITSGGSTYYADSVKGRFTISRDNAKNTVYLQMNSLKPEDTAVYYCAASWIRYRWRYGYWGQGTQVTVSS	high polyreactivity
QVQLVESGGGLVQAGGSLRISCAASAITFPRNAMGWYREAPGKERELVAAITSVGSTKYADSVKGRFTFSRDNAKNTVYLQMNSLKPEDTAVYYCATRGASAISNSVRWSYYYWGQGTQVTVSS	low polyreactivity

Sequence	polyreactivity (PSR sort gate)
QVQLVESGGGLVQAGGSLRLSCAASGRTFYSYAMVWYRQAPGKERELVAAISAGGSTYYADSVKGRFTSSRDNAMTTLYLQMNSLKPEDTAVYYCADTYSYYYVRYHYWGQGTQVTVSS	high polyreactivity
QVQLVESGGGLVQAGGSLRLSCAASGSTFHTYTMGWYRPAPGKERELVAGISRSGGSTYYAESVKGRFTISRDNAKNTVYLQMNSLKPEATAVYYCNALSSKTDTYDYWGQGTQVTVSS	high polyreactivity
QVQLVESGAGLVQAGGSLRLSCAASGSTFRSNAMGWYRPAPGKEREFVASITSRGGPTYYADSVKGRFTISRDNAKNTVYLQMKSLKPEDTAVYYCASARSYLTYFYHYDYWGQGTQVTVSS	low polyreactivity
QVQLVESGGGLVQAGGSLRLSCAASGITFCDNTMGWYRQAPGKERELVAAITYSSTSTYYADSVKGRFTISRDNAKNTVYLQMNSLKTEDTAVYYCAAEGPGDVVSTDYDFWGQGTQVTVSS	low polyreactivity
QVQLVESGGGLVQAGGSLRLSCAASGNIFTFNAMGWYRQAPGKERELVAAIRSGGSTNYADSVKGRFTISRDNAKNTVYLQMNSLKPEDTAVYYCAAKRYVQGYVYRYGYWGQGTQVTVSS	high polyreactivity
QVQLVESGGGLVQAGGSLRLSCAASGSTFDRNAMGWYRPAPGKERELVAAISWTGTSTRYADSVKGRFTISRDNAKNTVYLHMNSLKPEDTAGYYCAARGYSYYQRLYYWGQGTQVTVSS	high polyreactivity
QVQLVESGGGLVQAGGSLRLSCAASGSTFGVYDMGWYRQAPGKERELVAAITGNGGRTYYADSVKGRFTISRDNAKNTVYLQMNSLKPEDTAVYYCNARVKRYVYWPYDYWGQGTQVTVSS	high polyreactivity
QVQLIESGGGLVQAGGSLRLSCAASGSTGIYAMGWYRQAPGKERELVAAITRRAGSTYYADSVKGRFTISRDNAKNTVYLQMNSLKPEDTAVYYCAAKGLWWYGTYVSYEYWGKGTQVTVSS	low polyreactivity
QVQLVESGGGLVQAGGSLRLSCAASGSIFYPNAMGWYRQAPGKESELVAAISSSGGTNYADSVKGRFTISRDNAKNTVYLQMNSLKPEDTAVYYCAADIRSNRLYDGGYWGQGTQVTVSS	low polyreactivity
QVQLVESGGGLVQAGGSLRLSCAASGSTINYNAMGWYRQAPGKERELVAAIDSGVSTNYADSVKGRFTITRDNAKNTVYLQMNSLKPEDTAVYYCNADPDYFDYWGQGTQVTVSS	low polyreactivity
QVQLVESGGGLVQAGGSLRLSCAASGSTFAYYDMGRYRPAPGKERELVAAITIDGRTSYADSVKGRFTISRDNAMNTVYLQMNSLKPEDTAVYYCNTEIRLSKYDYWGQGTQVTVSS	low polyreactivity
QVQLVESGGGLVQAGGSLRLSCAASGSIFYYYAMGWYRQAPGKERELVAAINGGDGRTYYADSVKGRFTISRDNGKNTVYLQMNSLKPEDTAVYYCAADWPGYSAYYYWGQGTQVTVSS	low polyreactivity
QVQLVESGGGLVQAGGSLRLSCAASGGTFTGYAMGWYRQEPGKERELVAGISRSGGSTYYADSVKGRFTISRDNAKNTVYLQMNSLKPEDTAVYYCAKDVLKYRYWYYPGYDYWGQGTQVTVSS	high polyreactivity
QVQLVESGGGLVQAGGSLRLSCAASGSTFYYYAMGWYRQAPGKERELVASISGGGSTSYADSVKGRFTISRDNAKNTVYLQMNSLKPEDNAVYYCNADPSEYDPNYVVVFSPQKYDYCGQGTQVTVSS	low polyreactivity
QVQLVESGGGLVQAGGSLRLSCAASGRIFRTYTMGWYRQAPGKERELVAAISRSGASTYYADSVKGRFTISRDNAKNTVYLQMNSLKPEDTAVYYCAKLILSTALVSRPGVDYWGQGTQVTVSS	high polyreactivity
QVQLVESGGGLVQAGGSHRLSCAASGRPSAVNALGWSRQAPGKERELVAAITYGGDSTFYADSVKGRFTISRDNAKNTVYLQMNSLKPEDTAVYYCNADIWFIWHSFGWGYDYWGQGTQVTVSS	low polyreactivity
QVQLVESGGGLVQAGGSLRLSCAASGIILPYYVMGWYRQAPGKEREFVADITWSGGSTYYADSVKARFTISRDNAKNTVYLQMNSLKPEDTAVYYCAAEGQWYYFFDMDYWGQGTQVTVSS	high polyreactivity
QVQLVESGGGLVQAGGSLRISCAASGRTFYWNAMGWYRQAPGKERELVASINGGGSTYYADSVKGRFTISRDNAKNTVYLQMNSLKPEDTAVYYCNAESYEFHRAWGDYDYWGQGTQVTVSS	low polyreactivity
QVQLVESGGGLVQAGGSLRLSCAASGFTFRKYAMGWYRPAPGKERELVAAITANGGRTYYADSVKGRFTISRDNAKNTVYLQMNSLKPEDTAVYYCARDWGKSEYDYWGQGTQVTVSS	high polyreactivity
QVQLVESGGGLVQAGGSHRLSCAASGGTFYYYTMGWYRQAPGKERELVAAISWSGGSTYYADSVKGRFTISRNNEKNTVYLQMKSLKPEDSAVYYCNAVYAGRFGSHYWGQCTQVTVSS	high polyreactivity
QVQLVESGGGLVQAGGSLRLTCAASRIIFRKYAMGWYRQAPGKERELVAAISSSAGSTYYADSVKGRFTISRDNAKNTVYLQMNSLKPEDTAVYYCAADRHYTRYDYWGQGTQVTVSS	high polyreactivity
